{"source": "patent US20200262885A1", "about": "(ANTAROS MEDICAL, published 2020)", "key": {"human glucagon receptor": {"biological_target": "human glucagon receptor (human, UniProt P47871 26-477)", "test": "cell-based or functional assay"}, "human GLP-1 receptor": {"biological_target": "human GLP-1 receptor (human, UniProt P43220 24-463)", "test": "cell-based or functional assay"}}}
{"molecule": "HSQGTFTSDYSKYLDSRRAQDFVQWLM^27-N-T-C(VS-DO3A)-NH2 (peptide)", "values": [{"measurement": "EC50 hGLUC R", "setting": "human glucagon receptor", "value": 0.7, "unit": "pM"}]}
{"molecule": "XSQGTFXSDLAKQXESRRAQDFIEWLLATGPESGAPPPSX (Tza at 1; Aib at 7; Nle at 14; Cys(VS-DO3A) at 40; C-terminal amide)", "note": "[SEQ ID NO: 31]", "values": [{"measurement": "EC50 hGLP-1 R [pM]", "setting": "human GLP-1 receptor", "value": "1e+07", "unit": "pM"}]}
{"molecule": "XSQGTFXSDLSKQXESRRAKDFIEWLLATGPESGAPPPSX (Tza at 1; Aib at 7; Nle at 14; Cys(VS-DO3A) at 40; C-terminal amide)", "note": "[SEQ ID NO: 51]", "values": [{"measurement": "EC50 hGLP-1 R [pM]", "setting": "human GLP-1 receptor", "value": "1e+07", "unit": "pM"}]}
{"molecule": "XSQGTFTSDYSKQLESRRAQEFIEWLLAGGPESGAPPPSX (Tza at 1; Cys(VS-DO3A(Ga)) at 40; C-terminal -OH)", "note": "[SEQ ID NO: 80]", "values": [{"measurement": "EC50 hGLP-1 R [pM]", "setting": "human GLP-1 receptor", "value": 5130, "unit": "pM"}, {"measurement": "EC50 hGLUC R [pM]", "setting": "human glucagon receptor", "value": 0.7, "unit": "pM"}]}
{"molecule": "XSQGTFTSDXSKQXESRRAQEFIEWLLXGGPESGAPPPSX (Tza at 1; Tle at 10; Nle at 14; Bal at 28; Cys(VS-DO3A(Ga)) at 40; C-terminal amide)", "note": "[SEQ ID NO: 12]", "values": [{"measurement": "EC50 hGLP-1 R [pM]", "setting": "human GLP-1 receptor", "value": 12900, "unit": "pM"}, {"measurement": "EC50 hGLUC R [pM]", "setting": "human glucagon receptor", "value": 0.7, "unit": "pM"}]}
{"molecule": "XSQGTFTSDISKQXESRRAQEFIEWLLATGPESGAPPPSX (Tza at 1; Nle at 14; Cys(VS-DO3A(Ga)) at 40; C-terminal amide)", "note": "[SEQ ID NO: 36]", "values": [{"measurement": "EC50 hGLP-1 R [pM]", "setting": "human GLP-1 receptor", "value": 65300, "unit": "pM"}]}
{"molecule": "XSQGTFTSDTSKQLESRRAQEFIEWLLATGPESGAPPPSX (Tza at 1; Cys(VS-DO3A) at 40; C-terminal amide)", "note": "[SEQ ID NO: 47]", "values": [{"measurement": "EC50 hGLP-1 R [pM]", "setting": "human GLP-1 receptor", "value": "1e+07", "unit": "pM"}]}
{"molecule": "XSQGTFTSDYSKQLESRRAQEFIEWLLAGGPESGAPPPSX (Tza at 1; Cys(mal-NODAGA(Ga)) at 40; C-terminal amide)", "note": "[SEQ ID NO: 10]", "values": [{"measurement": "EC50 hGLUC R [pM]", "setting": "human glucagon receptor", "value": 0.9, "unit": "pM"}]}
{"molecule": "XSQGTFXSDLSKQXESRRAQDFIEWLLATGPESGAPPPSX (Tza at 1; Aib at 7; Nle at 14; Cys(mal-NOTA) at 40; C-terminal amide)", "note": "[SEQ ID NO: 16]", "values": [{"measurement": "EC50 hGLP-1 R [pM]", "setting": "human GLP-1 receptor", "value": "1e+07", "unit": "pM"}]}
{"molecule": "XXQGTFTSDYSKQLDEQRAQEFIEWLLATGPESGAPPPSX (Tza at 1; D-Ser at 2; Cys(VS-DO3A(Ga)) at 40; C-terminal amide)", "note": "[SEQ ID NO: 86]", "values": [{"measurement": "EC50 hGLP-1 R [pM]", "setting": "human GLP-1 receptor", "value": 115000, "unit": "pM"}, {"measurement": "EC50 hGLUC R [pM]", "setting": "human glucagon receptor", "value": 0.9, "unit": "pM"}]}
{"molecule": "XSQGTFTSDYSKQLESRRAQEFIEWLLAGGPESGAPPPSX (Tza at 1; Cys(mal-NOTA(Ga)) at 40; C-terminal amide)", "note": "[SEQ ID NO: 9]", "values": [{"measurement": "EC50 hGLP-1 R [pM]", "setting": "human GLP-1 receptor", "value": 4200, "unit": "pM"}, {"measurement": "EC50 hGLUC R [pM]", "setting": "human glucagon receptor", "value": 1, "unit": "pM"}]}
{"molecule": "XSQGTFTSDYSRQLESRRAQEFIEWLLATGPESGAPPPSX (Tza at 1; Lys(VS-DO3A(Ga)) at 40; C-terminal amide)", "note": "[SEQ ID NO: 44]", "values": [{"measurement": "EC50 hGLUC R [pM]", "setting": "human glucagon receptor", "value": 0.8, "unit": "pM"}]}
{"molecule": "XSQGTFTSDYSKQLESRRAQEFIEWLLATGPESGAPPPSX (Tza at 1; Cys(VS-DO3A(Ga)) at 40; C-terminal amide)", "note": "[SEQ ID NO: 34]", "values": [{"measurement": "EC50 hGLP-1 R [pM]", "setting": "human GLP-1 receptor", "value": 18800, "unit": "pM"}, {"measurement": "EC50 hGLUC R [pM]", "setting": "human glucagon receptor", "value": 0.8, "unit": "pM"}]}
{"molecule": "XSQGTFTSDYSKQLESRRAQEFIEWLLAGGPESGAPPPSX (Tza at 1; Cys(mal-DOTA(Ga)) at 40; C-terminal amide)", "note": "[SEQ ID NO: 7]", "values": [{"measurement": "EC50 hGLP-1 R [pM]", "setting": "human GLP-1 receptor", "value": 7530, "unit": "pM"}]}
{"molecule": "XSQGTFTSDTSKQLESRRAQEFIEWLLATGPESGAPPPSX (Tza at 1; Cys(VS-DO3A(Ga)) at 40; C-terminal amide)", "note": "[SEQ ID NO: 48]", "values": [{"measurement": "EC50 hGLP-1 R [pM]", "setting": "human GLP-1 receptor", "value": 297000, "unit": "pM"}, {"measurement": "EC50 hGLUC R [pM]", "setting": "human glucagon receptor", "value": 60.1, "unit": "pM"}]}
{"molecule": "XSQGTFXSDLSKQXESRRAQDFIEWLLATGPESGAPPPSX (Tza at 1; Aib at 7; Nle at 14; Cys(mal-NODAGA) at 40; C-terminal amide)", "note": "[SEQ ID NO: 17]", "values": [{"measurement": "EC50 hGLP-1 R [pM]", "setting": "human GLP-1 receptor", "value": "1e+07", "unit": "pM"}]}
{"molecule": "XSQGTFTSDYSKQLESRRAQEFIEWLLAGGPESGAPPPSX (Tza at 1; Cys(VS-DO3A(Ga)) at 40; C-terminal amide)", "note": "[SEQ ID NO: 8]", "values": [{"measurement": "EC50 hGLP-1 R [pM]", "setting": "human GLP-1 receptor", "value": 4130, "unit": "pM"}]}
